PMC10399917 (Journal of Molecular Cell Biology, 2023)

Columns and labels:
[1] = target: His-TMPRSS2 (transmembrane serine protease 2 with N-terminal 6x histidines) (UniProt O15393); test: […]
[2] = target: VF-TMPRSS2 (transmembrane serine protease 2 with N-terminal Venus-FLAG) (UniProt O15393); test: […]
Sequence of VF-TMPRSS2 (transmembrane serine protease 2 with N-terminal Venus-FLAG) (O15393 whole entry): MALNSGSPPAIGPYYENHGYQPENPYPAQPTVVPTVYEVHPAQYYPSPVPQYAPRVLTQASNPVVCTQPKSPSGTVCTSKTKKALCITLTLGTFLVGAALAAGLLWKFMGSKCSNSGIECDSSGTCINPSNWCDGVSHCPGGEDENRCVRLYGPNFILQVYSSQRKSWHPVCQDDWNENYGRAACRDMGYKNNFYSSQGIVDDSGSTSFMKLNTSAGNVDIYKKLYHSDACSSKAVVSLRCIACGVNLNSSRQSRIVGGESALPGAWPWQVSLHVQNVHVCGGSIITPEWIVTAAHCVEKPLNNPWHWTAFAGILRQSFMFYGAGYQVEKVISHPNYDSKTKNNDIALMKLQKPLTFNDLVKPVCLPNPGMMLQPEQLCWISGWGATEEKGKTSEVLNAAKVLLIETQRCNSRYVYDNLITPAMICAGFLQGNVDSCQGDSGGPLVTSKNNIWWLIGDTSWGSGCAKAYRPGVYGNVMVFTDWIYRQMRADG

Sequence of His-TMPRSS2 (transmembrane serine protease 2 with N-terminal 6x histidines) (O15393 whole entry): as above

| Substance | S/B ratio (TR-FRET signal-to-background) [1] | S/B ratio (TR-FRET signal-to-background) [2] |
| --- | --- | --- |
| SPIKE-FLAG (SARS-CoV-2 SPIKE glycoprotein with C-terminal FLAG) (from UniProt P0DTC2 14-1273) (natural protein) | > 23 |  |
| SPIKE-VF (SARS-CoV-2 SPIKE glycoprotein with C-terminal Venus-FLAG) (from UniProt P0DTC2 14-1273) (natural protein) | 23 |  |
| SPIKE-His (SARS-CoV-2 SPIKE glycoprotein with C-terminal 6x histidines) (from UniProt P0DTC2 14-1273) (natural protein) |  | > 23 |
